The values that follow come from article PMC13147308, “Investigating the molecular mechanisms underlying the anti‐CRISPR function of AcrIIA13b protein” (The Febs Journal, 2025).

The assay has as its target T1, Staphylococcus haemolyticus AcrIIA13b, wild type, with C-terminal 6xHis tag (Staphylococcus haemolyticus).
T1 construct: Monomer and dimer peaks coexist in SEC; also called shAcrIIA13b; wild-type AcrIIA13b; source: E. coli BL21 (DE3), purified (Ni-NTA, SEC)
The assay is described as follows: ITC; PBS pH 7.4, 20 °C; AcrIIA13b (500 μM) injected into the target protein (50 μM) in the cell, 25 injections; single-site model. The note with it: both partners purified. A general note: ITC needs no label: the signal is the heat of the interaction.

B1: SauCas9 WED (wedge-like) domain, His-tagged (domain or fragment)
chain: LYSTRKDDKGNTLIVNNLNGLYDKDNDKLKKLINKSPEKLLMYHHDPQTYQKLKLIMEQYGDEKNPLYKYYEETGNYLTKYSKKDNGPVIKKIKYYGNKLNAHLDITDDYPNSRNKVVKLSL
In the case of B1, the Kd is 3210 nM.

B2: SauCas9 WED-PI domain construct, His-tagged (domain or fragment)
chain: LYSTRKDDKGNTLIVNNLNGLYDKDNDKLKKLINKSPEKLLMYHHDPQTYQKLKLIMEQYGDEKNPLYKYYEETGNYLTKYSKKDNGPVIKKIKYYGNKLNAHLDITDDYPNSRNKVVKLSLKPYRFDVYLDNGVYKFVTVKNLDVIKKENYYEVNSKCYEEAKKLKKISNQAEFIASFYNNDLIKINGELYRVIGVNNDLLNRIEVNMIDITYREYLENMNDKRPPRIIKTIASKTQSIKKYSTDILGNLYEVKSKKHPQIIKKG
B2 had a Kd of 120 nM.

The Kd is a measure of binding affinity in units of concentration. A high value points to lower affinity.
